Numbering of substitutions follows the chain as printed. Each block holds one binder with its values, some of them ahead of it.
Tests used:
[1] = target: T1, recombinant human CTLA-4-Fc (R&D Systems, #7268-CT) (human, UniProt P16410 36-161); assay: surface plasmon resonance, antibody captured on CM5 chip, rhCTLA-4-Fc in solution
T1 construct: Bought protein; also called rhCTLA-4-Fc; CTLA-4 antigen; not shown: Fc part of the bought fusion protein
T1 sequence: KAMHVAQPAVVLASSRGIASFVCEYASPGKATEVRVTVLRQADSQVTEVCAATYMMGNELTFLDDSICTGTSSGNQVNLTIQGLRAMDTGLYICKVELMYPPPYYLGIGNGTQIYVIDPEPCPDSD
Description: To detect nonspecific interactions of the CTLA-4 antigen, antibody capture was only performed in flow cell 2, whereas in flow cell 1 only the capturing antibody was immobilized. After capture of the anti-CTLA-4 antibodies, the CTLA-4 antigens were run through both flow cells in different amounts. Specifically, recombinant human CTLA-4-Fc (R&D Systems, #7268-CT), recombinant human CTLA-4 (Sino Biological, #11159-H08H), recombinant cynomolgus CTLA-4-Fc (Sino Biological, #90213-C02H), and recombinant cynomolgus CTLA-4 (Sino Biological, #90213-C08H) were run at 100 nM, 25 nM, and 6.25 nM; and recombinant mouse CTLA-4-Fc (R&D, # 434-CT), recombinant rat CTLA-4-Fc (Sino Biological, #81069-RO2H), and recombinant rat CTLA-4 (Sino Biological, #81069-R08H) were run at 400 nM, 100 nM, and 25 nM. A blank curve (running buffer only) was also included in each run. Association was run for 90 seconds and dissociation for 600 seconds with a flow rate of 10 μl/min. After each run a regeneration step was performed with 10 mM Glycine pH 2.0 (GE Healthcare, BR-1003-55) for 60 seconds with 30 μl/min. Binding curves were evaluated using BIAcore® T200 evaluation software version 2.0.1 applying a Langmuir 1:1 model with global fit of Rmax. From these values the affinities (KD) of AGEN1884 and the reference anti-CTLA-4 antibody for various antigens were calculated and shown in FIG. 1A. The recombinant monomeric cynomolgus CTLA-4, mouse CTLA-4-Fc, and monomeric rat CTLA-4 used in this study failed quality control assessment. […] The surface plasmon resonance analysis was later repeated twice using recombinant mouse CTLA-4-Fc (Sino Biological, #81069-R02H) that passed a quality control assessment at 360 nM, 120 nM, 40 nM, and 13.3 nM for AGEN1884w.
The affinity of the 19 anti-CTLA-4 antibodies described above was analyzed by surface plasmon resonance in an assay similar to the one described in Section 6.1.1. The CTLA-4 antigen tested was recombinant human CTLA-4-Fc (R&D Systems, #7268-CT). The anti-CTLA-4 antibodies (6 μg/ml in running buffer) were captured to the chip surface of a CMS sensor chip.

[2] = target: T2, rhPD-1-Fc (R&D Systems, #1086-PD) (human, UniProt Q15116 25-167); assay: suspension array (Luminex) selectivity assay as in Section 6.1.3
T2 construct: Bought protein; also called recombinant human PD-1; not shown: Fc part of the bought fusion protein
T2 sequence (Q15116 25-167 limits assumed): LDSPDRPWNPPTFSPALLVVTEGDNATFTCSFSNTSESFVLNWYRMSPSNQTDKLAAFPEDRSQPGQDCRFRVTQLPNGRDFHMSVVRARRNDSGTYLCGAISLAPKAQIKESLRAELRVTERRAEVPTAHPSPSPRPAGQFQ

[3] = target: T3, recombinant cynomolgus CTLA-4-Fc (Sino Biological, #90213-C02H) (cynomolgus, UniProt P16410 36-161 (human entry)); assay: as above
T3 construct: Bought protein; also called recombinant cynomolgus (rc) CTLA-4; not shown: Fc part of the bought fusion protein
T3 sequence (P16410 other isoform, or with tags, fused parts or gaps C02H C02H limits assumed): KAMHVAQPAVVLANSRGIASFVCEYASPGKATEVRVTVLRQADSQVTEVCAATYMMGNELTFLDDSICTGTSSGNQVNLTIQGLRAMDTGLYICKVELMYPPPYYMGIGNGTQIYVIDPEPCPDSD

[4] = target: T4, rhICOS-Fc (R&D, #169-CS-050) (human, UniProt Q9Y6W8 21-141); assay: as above
T4 construct: Bought protein; also called recombinant human ICOS; not shown: Fc part of the bought fusion protein
T4 sequence: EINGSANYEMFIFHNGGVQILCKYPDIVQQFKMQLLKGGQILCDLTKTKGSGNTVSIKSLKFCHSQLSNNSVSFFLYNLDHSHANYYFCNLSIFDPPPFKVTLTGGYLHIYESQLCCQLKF

[5] = target: T5, rhCD28-Fc (R&D, #342-CD-200) (human, UniProt P10747 19-152); assay: as above
T5 construct: Bought protein; also called recombinant human CD28; not shown: Fc part of the bought fusion protein
T5 sequence (P10747 19-152 limits assumed): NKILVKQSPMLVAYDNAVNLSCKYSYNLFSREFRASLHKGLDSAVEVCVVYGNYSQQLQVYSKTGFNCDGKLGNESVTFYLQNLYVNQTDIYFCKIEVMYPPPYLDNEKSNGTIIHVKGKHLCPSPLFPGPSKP

[6] = target: T6, rhBTLA-Fc (Sino Biological, #11896-H02H) (human, UniProt Q7Z6A9 31-157); assay: as above
T6 construct: Bought protein; also called recombinant human BTLA; not shown: Fc part of the bought fusion protein
T6 sequence: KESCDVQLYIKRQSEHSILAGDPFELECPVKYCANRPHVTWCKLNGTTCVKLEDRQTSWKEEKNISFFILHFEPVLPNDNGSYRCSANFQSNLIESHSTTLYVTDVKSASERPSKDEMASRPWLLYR

[7] = target: T7, human FcγRIIB expressed on CHO cells (human, UniProt P31994 43-310); assay: flow cytometry on CHO cells expressing human FcγRIIB
T7 construct: whole, on cells; also called rCHO-huFcγRIIB+
T7 sequence (looked up): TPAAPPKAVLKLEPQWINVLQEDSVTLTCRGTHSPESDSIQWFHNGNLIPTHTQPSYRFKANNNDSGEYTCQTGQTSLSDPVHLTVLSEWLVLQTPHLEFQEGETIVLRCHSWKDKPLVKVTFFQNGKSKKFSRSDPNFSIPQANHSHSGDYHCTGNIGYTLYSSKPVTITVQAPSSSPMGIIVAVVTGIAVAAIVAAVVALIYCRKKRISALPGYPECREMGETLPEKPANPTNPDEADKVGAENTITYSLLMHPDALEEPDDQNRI
Experimental: (§1) The binding of anti-CTLA-4 antibodies to human FcγRIIA, FcγRIIB, and FcγRIIIA expressed on the surface of CHO cells was measured by flow cytometry. Briefly, CHO cells were transfected with cDNA encoding for human FcγRIIA^H131, FcγRIIB, or FcγRIIIA^V158, generating the following CHO cell lines: rCHO-huFcγRIIA⁺, rCHO-huFcγRIIB⁺, and rCHO-huFcγRIIIA⁺. Binding of a dose titration of antibodies ranging from 0.0056-1000 μg/ml was performed and the primary antibodies were detected with an anti-human F(ab′) secondary antibody conjugated with Phycoerythrin (PE) (Jackson Immune Research). The samples were tested by flow cytometry and the PE mean fluorescence intensity (MFI) values were analyzed and used to generate binding curves. The antibodies tested were AGEN1884w, AGEN2041w, a reference anti-CTLA-4 IgG₁ antibody, and an IgG₁ isotype control antibody. AGEN1884w produced in two different growth media was used in this study: the growth media CD FortiCHO™ from Life Technologies Inc./Thermo (AGEN1884w-FortiCHO) and the growth media PowerCHO™ 2 from Lonza (AGEN1884w-PowerCHO). The reference anti-CTLA-4 IgG₁ antibody contains a different IgG₁ allotype from the one in AGEN1884w. The IgG₁ isotype control antibody was only tested at 1000 μg/ml.

[8] = target: T8, human FcγRIIIA^V158 expressed on cells (human, UniProt P08637 17-254); assay: flow cytometry on CHO cells expressing human FcγRIIIA^V158
T8 construct: whole, on cells; also called rCHO-huFcγRIIIA+
T8 sequence (P08637 17-254 F176V limits assumed): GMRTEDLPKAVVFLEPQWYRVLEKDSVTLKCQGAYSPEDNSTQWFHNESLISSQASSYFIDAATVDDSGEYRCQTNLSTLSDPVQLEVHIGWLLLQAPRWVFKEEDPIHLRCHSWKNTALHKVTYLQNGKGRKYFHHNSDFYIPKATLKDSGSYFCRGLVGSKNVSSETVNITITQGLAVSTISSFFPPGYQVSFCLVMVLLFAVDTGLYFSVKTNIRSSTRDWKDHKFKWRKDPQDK
Experimental: as §1

binding result [1]: binds
B1: AGEN1896 (antibody, V domains shown)
VH: EVQLLESGGGLVKPGGSLRLSCAASGFTFSSYSMNWVRQAPGKGLEWVSSISSSSSYIYYADSVKGRFTISRDNAKNSLYLQMNSLRAEDTAVYYCARVGLMGPFDIWGQGTMVTVSS
VL: EIVLTQSPATLSFSPGERATLSCRASQSVSSYLAWYQQKPGQAPRLLIYGASSRATGIPDRFSGSGSGTDFTFTISRLEPEDFAVYYCQQYGSSPFTFGPGTKVDIK

binding result [1]: binds
B2: AGEN1898 (antibody, V domains shown)
VH: B1 VH with K13Q, S33A, N35S, E46V, D106N
VL: B1 VL with F13L, R45S, G50A, A51T, G66V, F73L, S93T, F96W, P100Q, D105E

binding result [1]: binds
B3: AGEN1887 (antibody, V domains shown)
VH: B1 VH with K13Q, S33A, N35S, E46V
VL: B1 VL with A9G, F13L, S31R, A34G, S53T, F73L, S76T, F96W, P100Q, D105E

binding result [1]: binds
B4: AGEN1901 (antibody, V domains shown)
VH: B1 VH with L5V, K13Q, R19T
VL: B1 VL with F13L, S30G, S31T, Q38H, P40V, S53R, F73L, F96W, P100Q, D105E

binding result [1]: binds
B5: AGEN1897 (antibody, V domains shown)
VH: B1 VH with K13Q, S33A, N35S, E46V, D106N
VL: B1 VL with A9G, F13L, S31R, A34G, S53T, F73L, S76T, F96W, P100Q, D105E

binding result [1]: binds
B6: AGEN1893 (antibody, V domains shown)
VH: B1 VH
VL: B1 VL with F13L, S30G, S31T, Q38H, P40V, S53R, F73L, F96W, P100Q, D105E

binding result [1]: binds
B7: AGEN1900 (antibody, V domains shown)
VH: B1 VH with K13Q, S33A, N35S, E46V, D106N
VL: B1 VL with F13L, S53N, D60A, F73L, R77S

binding result [1]: binds
B8: AGEN1890 (antibody, V domains shown)
VH: B1 VH with L5V, S78T
VL: B1 VL

binding result [1]: binds
B9: AGEN1895 (antibody, V domains shown)
VH: B1 VH
VL: B1 VL with F13L, R45S, G50A, A51T, G66V, F73L, S93T, F96W, P100Q, D105E

binding result [1]: binds
B10: AGEN1886 (antibody, V domains shown)
VH: B1 VH with L5V
VL: B1 VL

binding result [1]: binds
B11: AGEN1892 (antibody, V domains shown)
VH: B1 VH with L5V, S78T
VL: B1 VL with F13L, S53N, D60A, F73L, R77S

binding result [1]: binds
B12: AGEN1889 (antibody, V domains shown)
VH: B1 VH with L5V, S78T
VL: B1 VL with F13L, S30G, S31T, Q38H, P40V, S53R, F73L, F96W, P100Q, D105E

binding result [1]: binds
B13: AGEN1899 (antibody, V domains shown)
VH: B1 VH with K13Q, S33A, N35S, E46V, D106N
VL: B1 VL

binding result [1]: binds
B14: AGEN1888 (antibody, V domains shown)
VH: B1 VH with K13Q, S33A, N35S, E46V
VL: B1 VL

binding result [1]: binds
B15: AGEN1902 (antibody, V domains shown)
VH: B1 VH with L5V, K13Q, R19T
VL: B1 VL

binding result [1]: binds
B16: AGEN1891 (antibody, V domains shown)
VH: B1 VH with L5V, S78T
VL: B1 VL with F13V, G50A, S53T, G66A, F73L, F96W, P100Q, D105E

binding result [1]: binds
B17: AGEN1885 (antibody, V domains shown)
VH: B1 VH with L5V
VL: B1 VL with F13L, R45S, G50A, A51T, G66V, F73L, S93T, F96W, P100Q, D105E

binding result [2]: no binding
binding result [3]: binds
binding result [4]: no binding
binding result [5]: no binding
binding result [6]: no binding
binding result [7]: binds
binding result [8]: binds
B18: AGEN2041w (antibody, human IgG2, kappa)
heavy: EVQLVESGGGLVKPGGSLRLSCAASGFTFSSYSMNWVRQAPGKGLEWVSSISSSSSYIYYADSVKGRFTISRDNAKNSLYLQMNSLRAEDTAVYYCARVGLMGPFDIWGQGTMVTVSSASTKGPSVFPLAPCSRSTSESTAALGCLVKDYFPEPVTVSWNSGALTSGVHTFPAVLQSSGLYSLSSVVTVPSSNFGTQTYTCNVDHKPSNTKVDKTVERKCCVECPPCPAPPVAGPSVFLFPPKPKDTLMISRTPEVTCVVVDVSHEDPEVQFNWYVDGVEVHNAKTKPREEQFNSTFRVVSVLTVVHQDWLNGKEYKCKVSNKGLPAPIEKTISKTKGQPREPQVYTLPPSREEMTKNQVSLTCLVKGFYPSDIAVEWESNGQPENNYKTTPPMLDSDGSFFLYSKLTVDKSRWQQGNVFSCSVMHEALHNHYTQKSLSLSPG
light: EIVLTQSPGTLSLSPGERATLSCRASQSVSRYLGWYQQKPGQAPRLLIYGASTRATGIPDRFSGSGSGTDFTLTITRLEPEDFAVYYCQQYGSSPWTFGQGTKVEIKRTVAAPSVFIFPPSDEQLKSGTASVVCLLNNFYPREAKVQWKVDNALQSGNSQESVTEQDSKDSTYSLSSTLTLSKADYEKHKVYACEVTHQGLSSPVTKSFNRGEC
notes: Human IgG2 version of AGEN1884w
